According to IntAct's records for PubMed 11964151:

B1: Galactose/lactose metabolism regulatory protein GAL80 (Saccharomyces cerevisiae), P04387 (parent)
chain: MDYNKRSSVSTVPNAAPIRVGFVGLNAAKGWAIKTHYPAILQLSSQFQITALYSPKIETSIATIQRLKLSNATAFPTLESFASSSTIDMIVIAIQVASHYEVVMPLLEFSKNNPNLKYLFVEWALACSLDQAESIYKAAAERGVQTIISLQGRKSPYILRAKELISQGYIGDINSIEIAGNGGWYGYERPVKSPKYIYEIGNGVDLVTTTFGHTIDILQYMTSSYFSRINAMVFNNIPEQELIDERGNRLGQRVPKTVPDHLLFQGTLLNGNVPVSCSFKGGKPTKKFTKNLVIDIHGTKGDLKLEGDAGFAEISNLVLYYSGTRANDFPLANGQQAPLDPGYDAGKEIMEVYHLRNYNAIVGNIHRLYQSISDFHFNTKKIPELPSQFVMQGFDFEGFPTLMDALILHRLIESVYKSNMMGSTLNVSNISHYSL
partner: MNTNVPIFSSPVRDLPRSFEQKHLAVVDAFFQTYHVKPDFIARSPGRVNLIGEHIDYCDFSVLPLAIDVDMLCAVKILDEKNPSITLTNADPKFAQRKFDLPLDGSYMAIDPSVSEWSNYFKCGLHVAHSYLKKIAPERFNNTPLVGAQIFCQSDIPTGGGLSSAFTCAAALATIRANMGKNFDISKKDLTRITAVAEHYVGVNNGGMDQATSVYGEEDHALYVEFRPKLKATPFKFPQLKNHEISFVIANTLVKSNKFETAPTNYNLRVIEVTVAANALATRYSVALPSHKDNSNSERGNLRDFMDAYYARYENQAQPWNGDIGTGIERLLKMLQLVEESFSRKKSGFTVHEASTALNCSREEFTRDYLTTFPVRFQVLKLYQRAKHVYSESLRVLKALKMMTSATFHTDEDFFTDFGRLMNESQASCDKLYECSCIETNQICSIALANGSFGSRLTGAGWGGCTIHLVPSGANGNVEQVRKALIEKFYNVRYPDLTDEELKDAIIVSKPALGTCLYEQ

Variants of: B1
Details: with gal3_yeast GAL3, P13045

Row | effect of a mutation on the interaction | Variant
1 | decreasing interaction strength | E351K
